Measurements as given in the supplement of paper PMC9170038.

Test system: MS2 coat protein
Assay: apparent KD of MS2 coat protein; designed switch direction (-1 OFF switch, 1 ON switch): -1; higher = weaker reporter binding
Summary of the method: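 On Illumina chips, designed RNA switches with common flanks were made by stalled E. coli RNA polymerase. Titrations with SNAP-549-labelled MS2 coat protein, doubling from 0.7 or 1.5 nM to 3 µM, were done with no input, with 200 uM small-molecule ligand, or with an oligonucleotide input. Apparent KD is the median per design over clusters, from curve fits of normalised cluster fluorescence.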

[1] = input ligand: microRNA oligo, concentration not stated
[2] = Eterna round: R95, input ligand: microRNA oligo, concentration not stated
[3] = Eterna round: R95, input ligand: FMN 200 uM
[4] = Eterna round: R95, input ligand: none

Sequence	apparent KD of MS2 coat protein (input ligand: FMN 200 uM)	apparent KD of MS2 coat protein (input ligand: none)	apparent KD of MS2 coat protein [1]	apparent KD of MS2 coat protein [2]	apparent KD of MS2 coat protein [3]	apparent KD of MS2 coat protein [4]
GUACUAAGUGUGAGGAUAUCACAGGACGUUCACUAUGAGAAGGUACAUGAGGAUCACCCAUGUAUCGUGGGUCA [Eternabot (Original) Solution 7] (Eterna round: R97, puzzle: Brourd's mod of Exclusion 4)	20.3 nM	17.7 nM				
GUACUACAUGAGGAUCACCCAUGUCAGGAUAUGGGAAUUUCAUCAAAAGAUGAAAUUCUUAGAAGGGACAGUAC [Omei Ex1 A5] (Eterna round: R97, puzzle: Exclusion 1)	24.6 nM	22.2 nM				
GUACUGAAGCUUUGCUUUAAUCGUACAUGAGGAUCACCCAUGUAGGAUAUGGUAGGCAAAGCUUACCAGAAGGACAGAGUGAUC [Mat - Exclusion NG 3 - Mod of JL - D67] (Eterna round: R96, puzzle: Exclusion NG 3)	103 nM	93.1 nM	92.1 nM			
GUACUGAAGCUUUGCUUUAGUCGUACAUGAGGAUCACCCAUGUAGGAUAUGGUAGGCUUUGCUUACUAGAAGGACAGAGUGAUC [JL EXNG3 1.26] (Eterna round: R96, puzzle: Exclusion NG 3)	33.1 nM	75.7 nM	139 nM			
GUACUGACAGGAUAUACAUGAGGAUCACCCAUGUGCCCUUAAAGAUGCAAAGCAUCUAGUAGAAGGGUCUGUAC [Omei Ex3 Model Bachelor's Dilema v23] (Eterna round: R97, puzzle: Exclusion 3)	66.1 nM	33.4 nM				
GUAGAGUAAGGAUAUGAUGAAUAGGAUAGAAUGGUUAGAAAUCAGAAGGUACAUGAGGAUCACCCAUGUAAUGU [Excluse me!!!! 13 - Jieux - Exclusion 4] (puzzle: Exclusion 4)				21.4 nM		
GUAGAGUAAGGAUAUGGUGAAUAGGAUAGAAUGGUUAGAAACCAGAAGGUACAUGAGGAUCACCCAUGUAAUGU [Excluse me!!!! 16 - Jieux - Exclusion 4] (puzzle: Exclusion 4)				20.2 nM		
GUAGAGUAAGGAUAUGUAGAAUAGGAUAGAAUGGUUAGAAUGCAGAAGGUACAUGAGGAUCACCCAUGUAAUGU [Excluse me!!!! 5 - Jieux - Exclusion 4] (puzzle: Exclusion 4)				21.2 nM		
GUAGAGUCAGGAUAUACAAGAUCGAAAGAUCGGCGGUCCAUACAUGAGGAUCACCCAUGUAGAAGGGACUCUAC [Eli x2 4.005] (Eterna round: R97, puzzle: Exclusion 2)	619 nM	30.2 nM				
GUAGAGUCAGGAUAUACGAGAUCGAAAGAUCAAAGAUUCCUACAUGAGGAUCACCCAUGUAGAAGGGACUCUAC [Eli x2 4.123] (Eterna round: R97, puzzle: Exclusion 2)	16 nM	15.6 nM				
GUAGAUCAGGCUUUCAUUGACAUGAGGAUCACCCAUGUUUUGAAAGGGUGAGAGAGGUGCUUCAUAUUCAGCUCUGA [JR_Sensorv2_tov_Sub1218] (Eterna round: R96, puzzle: Sensor v2, turn-off variant)	76.4 nM	61.1 nM	55.3 nM			
GUAGCCCGAGGAUAUACAUGAGGAUCACCCAUGUAUCGUUCGAGAAGACUCGGCCCGUGUAGAAGGCGGUAUCC [Eternabot (L1) Solution 22] (Eterna round: R97, puzzle: Exclusion 3)	25.3 nM	23.1 nM				
GUAGCUGAUAAGGAUAUUGUACCUAACCUGCGUCGAGAAGGUGUCACAUGAGGAUCACCCAUGUUUAGGCAAAG [Eternabot (L2) Solution 22] (Eterna round: R97, puzzle: Exclusion 6)	24.4 nM	29.5 nM				
GUAGGGUCAGGAUAUACGCAGACGGUUUCGUCGGGUUAUCUACAUGAGGAUCACCCAUGUAGAAGGGAUCAUAC [Eternabot (L1) Solution 53] (Eterna round: R97, puzzle: Exclusion 2)	53.4 nM	15.8 nM				
GUAGGGUCAGGAUAUACGGGCGGGAGGAUGUAGUGGAGUUGGUAGAAGGGACAUGAGGAUCACCCAUGUGAGAA [JR_Exclu4_Sub053] (puzzle: Exclusion 4)				27.3 nM		
GUAUAACAUGUAGGAUAUGCGUGGCGAAGCUAUGCAGAAGGACAUGAGGAUCACCCAUGUUUUUGCGUCUGCGUACAGAUGCUA [JL ENG1 1.40] (Eterna round: R96, puzzle: Exclusion NG 1)	107 nM	21.5 nM	15.2 nM			
GUAUAACUACACGGGCUCAACAUGAGGAUCACCCAUGUAAUAUACGCAAGCUUUUUGCUUGUCUUAUCUGUCCGUGA [Aanrius] (puzzle: Sensor v3, turn-off variant 1)				9.56 nM	12.3 nM	11.4 nM
GUAUACAAGCAAAGAUCCCACAUGAGGAUCACCCAUGUGCUCGUCUUAUAAGGUACUGUGACGAAAGUCACGGUACC [Mat - Sensor, turn-off var - Eli Mod - D103] (Eterna round: R97, puzzle: Sensor, turn-off variant 1)	42.9 nM	43 nM				
GUAUACAGAGGAUAUACGUGCGGCGUCAAAUGUCCAAGAGUACAUGAGGAUCACCCAUGUAGAAGGUUGAAAGC [Eternabot (L1) Solution 15] (Eterna round: R97, puzzle: Exclusion 2)	21.7 nM	26.6 nM				
GUAUGUUAUGAGGAUAUCGGUGAACAUACACAUCGAGAAGGCAUGACAUGAGGAUCACCCAUGUCAAGGAUGAG [Exclusion 6 - B - 18:c] (puzzle: Exclusion 6)				17.7 nM	71.9 nM	22.7 nM
GUAUGUUAUGAGGAUAUCGGUGAACAUACACAUCGAGAAGGCAUGACAUGAGGAUCACCCAUGUCGAGGAUGAA [Exclusion 6 - B - 18:e] (puzzle: Exclusion 6)				18 nM	47.2 nM	23.7 nM
GUCACAUGGACAUAGGAUCACAUGAGGAUCACCCAUGUGACUAACAAGCUUUUUGUUCGUCUUAUGUCCAUGUGAAU [Stov1/15-B1] (Eterna round: R97, puzzle: Sensor, turn-off variant 1)	13.7 nM	12 nM				
GUCACUAGAGGAUAUACAAUGGUAUAUGAUCCUAGAGACAUACAUGAGGAUCACCCAUGUAGAAGGCUAGUAUU [Exclusion 2 - 5] (Eterna round: R96, puzzle: Exclusion 2)	52.9 nM	52.5 nM	53.1 nM			
GUCACUAGAGGAUAUACAAUGGUAUAUGAUCCUAGAGACAUACAUGAGGAUCACCCAUGUAGAAGGCUAGUAUU [Exclusion 2 - 5] (puzzle: Exclusion 2)				58.3 nM		
GUCAGACGAGGAUAUAAAUUUGAUAACAUGAGGAUCACCCAUGUGAUCGAUAGAUCAAAUUUAGAAGGCGUCUGAC [E5/7-A4] (Eterna round: R97, puzzle: Exclusion 5)	520 nM	492 nM				
GUCAGACGAGGAUAUAGAUUUAGAUACAUGAGGAUCACCCAUGUAUAUAUGUAUUUAGAUUUAGAAGGCGUCUGAC [E5/15-A3] (Eterna round: R97, puzzle: Exclusion 5)	187 nM	240 nM				
